The source of these data is patent US20200255846A1 (INSTITUTE OF GENETICS AND DEVELOPMENTAL BIOLOGY CHINESE …, published 2020).

The assay deals with nYFP-OsCaM1-1 (rice calmodulin OsCaM1-1 fused with the N-terminal fragment of YFP) (rice, UniProt Q0JNS6 1-149). In words: BiFC, nYFP-OsCaM1-1 and cYFP-GSE5 coexpressed in N. benthamiana leaves. The text has this:
The coding sequence of GSE5 were amplified by specific primers ycGSE5-F/R, fused with the C-terminal fragment of YFP (cYFP), and then subcloned into the pGWB414 vector (Invitrogen) using in-fusion enzyme (Genebank Biosciences Inc, China). The N-terminal fragment of YFP (nYFP) was amplified from pSY736 using the primers YN-736-F and YN-736-R, fused with the OsCaM1-1 gene, and then subcloned into the pGWB414 vector (Invitrogen) using in-fusion enzyme (Genebank Biosciences Inc, China). nYFP-OsCaM1-1 and cYFP-GSE5 constructs were transformed into Agrobacterium strains GV3101. Transient expression of nYFP-OsCaM1-1 and cYFP-GSE5 in Nicotiana benthamiana leaves and fluorescence observation were conducted as described previously (Wang et al., 2016).

B1: cYFP-GSE5 (GSE5, GRAIN SIZE ON CHROMOSOME 5, fused with the C-terminal fragment of YFP) (other)
chain: MGKAARWFRNMWGGGRKEQKGEAPASGGKRWSFGKSSRDSAEAAAAAAAAAAEASGGNAAIARAAEAAWLRSVYADTEREQSKHAIAVAAATAAAADAAVAAAQAAVAVVRLTSKGRSAPVLAATVAGDTRSLAAAAVRIQTAFRGFLAKKALRALKALVKLQALVRGYLVRRQAAATLQSMQALVRAQATVRAHRSGAGAAANLPHLHHAPFWPRRSLQERCAGDDTRSEHGVAAYSRRLSASIESSSYGYDRSPKIVEVDTGRPKSRSSSSRRASSPLLLDAAGCASGGEDWCANSMSSPLPCYLPGGAPPPRIAVPTSRHFPDYDWCALEKARPATAQSTPRYAHAPPTPTKSVCGGGGGGGIHSSPLNCPNYMSNTQSFEAKVRSQSAPKQRPETGGAGAGGGRKRVPLSEVVVVESRASLSGVGMQRSCNRVQEAFNFKTAVVGRLDRSSESGENDRHAFLQRRW
notes: BiFC construct in pGWB414, transiently expressed inside Nicotiana benthamiana leaf cells (not on the cell surface); not shown: C-terminal fragment of YFP (cYFP)
As for B1, the binding result was “binds”.
